Experimental data as given in article PMC4243253 (Biochemical Journal, 2014).

B1: Burkholderia cenocepacia kynurenine formamidase KynB (enzyme)
chain: MDTLWDISPPVSPATPVWPGDTPVAVERVWRMEAGSPVNVARLTLSPHTGAHCDAPLHYDADGAPIGAVPLDTYLGPCRVIHCIGAAPVVRPADVEAALDGVPPRVLLRTYARAAVEQWDSNFCAVAPDTVDLLAAHGVKLIGIDTPSLDPQESKTMDAHRRVRAHRMAILEGIVLDDVPPGDYELIALPLKFATLDASPVRAVLRALPAQAS
notes: also called BcKynB; KFase
B2: Pseudomonas aeruginosa kynurenine formamidase KynB, His-tagged (enzyme)
chain: MTSLRYWDISPALDPNTPTWPGDTPFQQEWAARLDEQCPVNVGRITLSPHTGAHVDGPLHYRADGLPIGQVPLDIYMGPCRVIHCIGANPLVTPEHLAGQLDDLPSRVLLRTFERVPANWPEGFCAIAPATIECLAERGVRLVGIDTPSLDPQHSKTLDAHHAVGRHGMAILEGVVLDDVPAGDYELLALPLKFTHLDASPVRAVLRALPTAE
notes: also called PaKynB; PaKynB-His; source: E. coli BL21(DE3)pLysS, purified (HisTrap, SEC Superdex75); not shown: His6, N-terminal, kept

Target: the molecule itself
Assay: SEC

| Protein | stoichiometry N |
| --- | --- |
| B1 | 2 |
| B2 | 2 |
